# Experimental data reported in US20230213525A1, “DETECTING MICROBIAL INFECTION IN WOUNDS” (QUALIZYME DIAGNOSTICS GMBH & CO KG, priority 2016, published 2023).
# T1: Elastase (Homo sapiens, UniProt P08246)
# T1 sequence (P08246 30-267): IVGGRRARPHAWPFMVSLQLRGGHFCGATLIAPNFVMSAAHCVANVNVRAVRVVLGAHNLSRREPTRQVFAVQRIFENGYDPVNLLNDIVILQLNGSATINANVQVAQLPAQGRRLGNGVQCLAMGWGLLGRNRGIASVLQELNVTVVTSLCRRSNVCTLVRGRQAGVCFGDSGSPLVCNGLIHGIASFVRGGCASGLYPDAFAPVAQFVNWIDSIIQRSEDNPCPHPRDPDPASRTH
# B1: Trx-Ela-Sub 1-RBB: purified Trx-Ela-Sub1 fusion protein stained with vinyl sulfone dye remazol brilliant blue R (conjugate)
# chain: MSDKIIHLTDDSFDTDVLKADGAILVDFWAEWCGPCKMIAPILDEIADEYQGKLTVAKLNIDQNPGTAPKYGIRGIPTLLLFKNGEVAATKVGALSKGQLKEFLDALAGSGSGHMHHHHHHSSGLVPRGSGMKETAAAKFERQHMDSPDLGTDDDDKAMGGSCGGGGSAAPVGGGGSAAPVGGGGSPPGGNRGTTTTRRPATTTGSSPGPTQSHYGQCGGIGYSGPTVCASGTTCQVLNPYYSQCLLEHHHHHH
# Target: T1, Elastase
# Test: Reaction of Trx-Ela-Sub 1-RBB with Elastase
# Type: biochemical
# Conditions: incubated with and without Elastase containing buffer; FIG. 10
# Procedure: The stained and purified peptide construct was applied on a cellulose surface and dried at 37° C. for 2 h. Unbound Trx-Ela-Sub 1-RBB was removed with H20. The stripes with the applied Elastase substrate were incubated with and without Elastase containing buffer, respectively.
molecule,measurement,value
B1,dye release from cellulose stripes,Elastase responsive dye release
